To fix the notation:
B1: Vacuolar protein-sorting-associated protein 36 (Saccharomyces cerevisiae), Q06696 (parent)
chain: MEYWHYVETTSSGQPLLREGEKDIFIDQSVGLYHGKSKILQRQRGRIFLTSQRIIYIDDAKPTQNSLGLELDDLAYVNYSSGFLTRSPRLILFFKDPSSKDELGKSAETASADVVSTWVCPICMVSNETQGEFTKDTLPTPICINCGVPADYELTKSSINCSNAIDPNANPQNQFGVNSENICPACTFANHPQIGNCEICGHRLPNASKVRSKLNRLNFHDSRVHIELEKNSLARNKSSHSALSSSSSTGSSTEFVQLSFRKSDGVLFSQATERALENILTEKNKHIFNQNVVSVNGVDMRKGASSHEYNNEVPFIETKLSRIGISSLEKSRENQLLNNDILFNNALTDLNKLMSLATSIERLYKNSNITMKTKTLNLQDESTVNEPKTRRPLLILDREKFLNKELFLDEIAREIYEFTLSEFKDLNSDTNYMIITLVDLYAMYNKSMRIGTGLISPMEMREACERFEHLGLNELKLVKVNKRILCVTSEKFDVVKEKLVDLIGDNPGSDLLRLTQILSSNNSKSNWTLGILMEVLQNCVDEGDLLIDKQLSGIYYYKNSYWPSHI
partner: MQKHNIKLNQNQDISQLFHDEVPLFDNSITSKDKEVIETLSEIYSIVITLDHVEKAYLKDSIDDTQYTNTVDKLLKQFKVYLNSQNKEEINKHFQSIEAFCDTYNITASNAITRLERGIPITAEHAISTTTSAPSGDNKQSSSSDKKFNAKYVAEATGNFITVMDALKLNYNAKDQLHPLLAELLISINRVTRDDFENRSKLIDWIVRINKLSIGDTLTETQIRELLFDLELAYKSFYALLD

Variants of B1 are the subject of the first assay. Conditions: with vps28_yeast VPS28, Q02767.
For MEYWHYVETTSSGQPLLREGEKDIFIDQSVGLYHGKSKILQRQRGRIFLTSQRIIYIDDAKPTQNSLGLELDDLAYVNYSSGFLTRSPRLILFFKDPSSKDELGKSAETASADVVSTWVCPDCMVSNETQGEFTKDTLPTPICINCGVPADYELTKSSINCSNAIDPNANPQNQFGVNSENICPACTFANHPQIGNCEICGHRLPNASKVRSKLNRLNFHDSRVHIELEKNSLARNKSSHSALSSSSSTGSSTEFVQLSFRKSDGVLFSQATERALENILTEKNKHIFNQNVVSVNGVDMRKGASSHEYNNEVPFIETKLSRIGISSLEKSRENQLLNNDILFNNALTDLNKLMSLATSIERLYKNSNITMKTKTLNLQDESTVNEPKTRRPLLILDREKFLNKELFLDEIAREIYEFTLSEFKDLNSDTNYMIITLVDLYAMYNKSMRIGTGLISPMEMREACERFEHLGLNELKLVKVNKRILCVTSEKFDVVKEKLVDLIGDNPGSDLLRLTQILSSNNSKSNWTLGILMEVLQNCVDEGDLLIDKQLSGIYYYKNSYWPSHI [I122D], the “effect of a mutation on the interaction” value is “disrupting interaction”.

The variants in a further assay derive from B1. Conditions: with vps28_yeast VPS28, Q02767. The source holds these as a separate data set.
For MEYWHYVETTSSGQPLLREGEKDIFIDQSVGLYHGKSKILQRQRGRIFLTSQRIIYIDDAKPTQNSLGLELDDLAYVNYSSGFLTRSPRLILFFKDPSSKDELGKSAETASADVVSTWVCPICMVSNETQGEFTKDTLPTPICINCGVPARYERTKSSINCSNAIDPNANPQNQFGVNSENICPACTFANHPQIGNCEICGHRLPNASKVRSKLNRLNFHDSRVHIELEKNSLARNKSSHSALSSSSSTGSSTEFVQLSFRKSDGVLFSQATERALENILTEKNKHIFNQNVVSVNGVDMRKGASSHEYNNEVPFIETKLSRIGISSLEKSRENQLLNNDILFNNALTDLNKLMSLATSIERLYKNSNITMKTKTLNLQDESTVNEPKTRRPLLILDREKFLNKELFLDEIAREIYEFTLSEFKDLNSDTNYMIITLVDLYAMYNKSMRIGTGLISPMEMREACERFEHLGLNELKLVKVNKRILCVTSEKFDVVKEKLVDLIGDNPGSDLLRLTQILSSNNSKSNWTLGILMEVLQNCVDEGDLLIDKQLSGIYYYKNSYWPSHI [D151R;L154R], the “effect of a mutation on the interaction” value is reported as “disrupting interaction”.

A further assay covers variants of B1. The settings on record: with vps28_yeast VPS28, Q02767. This is another data set of the same source.
For MEYWHYVETTSSGQPLLREGEKDIFIDQSVGLYHGKSKILQRQRGRIFLTSQRIIYIDDAKPTQNSLGLELDDLAYVNYSSGFLTRSPRLILFFKDPSSKDELGKSAETASADVVSTWVCPICMVSNETQGEFTKDTLPTPICINCGDPARYELTKSSINCSNAIDPNANPQNQFGVNSENICPACTFANHPQIGNCEICGHRLPNASKVRSKLNRLNFHDSRVHIELEKNSLARNKSSHSALSSSSSTGSSTEFVQLSFRKSDGVLFSQATERALENILTEKNKHIFNQNVVSVNGVDMRKGASSHEYNNEVPFIETKLSRIGISSLEKSRENQLLNNDILFNNALTDLNKLMSLATSIERLYKNSNITMKTKTLNLQDESTVNEPKTRRPLLILDREKFLNKELFLDEIAREIYEFTLSEFKDLNSDTNYMIITLVDLYAMYNKSMRIGTGLISPMEMREACERFEHLGLNELKLVKVNKRILCVTSEKFDVVKEKLVDLIGDNPGSDLLRLTQILSSNNSKSNWTLGILMEVLQNCVDEGDLLIDKQLSGIYYYKNSYWPSHI [V148D;D151R], the “effect of a mutation on the interaction” value is reported as “disrupting interaction”.

The variants in another assay derive from B1. The settings on record: with vps28_yeast VPS28, Q02767. This is another data set of the same source.
Turning to MEYWHYVETTSSGQPLLREGEKDIFIDQSVGLYHGKSKILQRQRGRIFLTSQRIIYIDDAKPTQNSLGLELDDLAYVNYSSGFLTRSPRLILFFKDPSSKDELGKSAETASADVVSTWVCPDCMVSNETQGEFTKDTLPTPICINCGDPADYELTKSSINCSNAIDPNANPQNQFGVNSENICPACTFANHPQIGNCEICGHRLPNASKVRSKLNRLNFHDSRVHIELEKNSLARNKSSHSALSSSSSTGSSTEFVQLSFRKSDGVLFSQATERALENILTEKNKHIFNQNVVSVNGVDMRKGASSHEYNNEVPFIETKLSRIGISSLEKSRENQLLNNDILFNNALTDLNKLMSLATSIERLYKNSNITMKTKTLNLQDESTVNEPKTRRPLLILDREKFLNKELFLDEIAREIYEFTLSEFKDLNSDTNYMIITLVDLYAMYNKSMRIGTGLISPMEMREACERFEHLGLNELKLVKVNKRILCVTSEKFDVVKEKLVDLIGDNPGSDLLRLTQILSSNNSKSNWTLGILMEVLQNCVDEGDLLIDKQLSGIYYYKNSYWPSHI [I122D;V148D], the “effect of a mutation on the interaction” value was “disrupting interaction”.

Values taken from IntAct's records for PubMed 17215868.
